This note sets out measurements from patent publication EP4361176A1 (CHUGAI SEIYAKU KABUSHIKI KAISHA, dated 2024).

The target in one test is T1, mCTLA4-His (mouse, UniProt P09793 36-161).
T1 construct: Mouse CTLA4 extracellular region linked with a His-tag; also called mouse CTLA4; Mouse CTLA4
The test is described as follows: SPR Biacore T200, 100 uM ATP.

Test [1] addresses T2, human CTLA4 (hCTLA4-His-BAP: human CTLA4 extracellular region with C-terminal His-tag and BAP-tag) (human).
T2 construct: This tie is an inference
As to the kind of experiment: SPR (Biacore T200, 37C), antibody captured, human CTLA4 at 1000 nM, no ATP. For orientation: In SPR one partner is held on a chip, and binding of the other changes the refractive index at the surface.

Test [2] addresses T2, human CTLA4 (hCTLA4-His-BAP: human …). The test is described as follows: SPR (Biacore T200, 37C), antibody captured, human CTLA4 at 1000 nM, ATP 10 uM.
The target is the same in test [3]. As to the kind of experiment: SPR (Biacore T200, 37C), antibody captured, human CTLA4 at 1000 nM, ATP 1 uM.
Test [4] shares this target. The test is described as follows: SPR (Biacore T200, 37C), antibody captured, human CTLA4 at 1000 nM, ATP 100 uM.
Test [5] has as its target T3, human FcγRIIb extracellular domain (human, UniProt P31994 43-217).
T3 construct: extracellular domain; Made by the method of WO2014104165; also called hFcγR IIb; FcyRIIb
T3 sequence (looked up): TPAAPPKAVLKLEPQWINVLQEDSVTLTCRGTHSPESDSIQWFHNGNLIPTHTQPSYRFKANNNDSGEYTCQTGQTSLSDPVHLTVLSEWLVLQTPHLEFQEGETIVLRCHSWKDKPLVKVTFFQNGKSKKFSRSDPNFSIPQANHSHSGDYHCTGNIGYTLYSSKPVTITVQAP
The test is described as follows: SPR (Biacore 8K+), captured antibody, steady state affinity model.

Test [6] deals with T4, human FcγRIIa H extracellular domain (human, UniProt P12318 34-217).
T4 construct: extracellular domain; Made by the method of WO2014104165; also called hFcγR IIa H; FcyRIIaH
T4 sequence (looked up): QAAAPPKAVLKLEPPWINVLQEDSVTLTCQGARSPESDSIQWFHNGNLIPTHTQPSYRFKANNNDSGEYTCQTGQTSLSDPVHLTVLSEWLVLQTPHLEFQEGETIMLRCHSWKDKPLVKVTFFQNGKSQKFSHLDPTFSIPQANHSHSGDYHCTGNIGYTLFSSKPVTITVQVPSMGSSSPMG
As to the kind of experiment: SPR; KD of G1d divided by KD of this antibody.

The target in test [7] is T3, human FcγRIIb extracellular domain. As to the kind of experiment: SPR; KD of G1d divided by KD of this antibody.
Test [8] addresses T4, human FcγRIIa H extracellular domain. As to the kind of experiment: SPR (Biacore 8K+), captured antibody, 1:1 Langmuir model.

B1: 04H1208-G1m/04L1407-k0MT (antibody, human IgG1, kappa, V domains shown)
VH: EVQLVESGGGLVKPGGSLRLSCAASGFTFSSKTMNWVRQAPGKGLEWVSSISTRSGYIYYARSVKGRFTISRDNAKNSLYLQMNSLRAEDTAVYYCARYGKREDMLWVFDYWGQGTLVTVSS
VL: DIVMTQSPLSLPVTPGEPASISCDGPSTDVGDYNWVHWYQQKPGQAPRLLIYYTSSKPEGVPDRFSGSGSGTDFTLKISRVEAEDVGVYYCQTYAAPLGPTFGQGTKLEIKR
For B1, the “fold weaker binding to mouse CTLA4 than to human CTLA4” value with mCTLA4-His was roughly 2 fold.

B2: 04H1389-G1m/04L1086-lam1 (antibody, human IgG1, lambda, V domains shown)
VH: EVQLVESGGGLVKPGGSLRLSCAASGFTFSSKTMNWVRQAPGKGLEWVSSISTQSHYIYYAESVKGRFTISRDNAKNSLYLQMNSLRAEDTAVYYCARYGKREDMLWVFDYWGQGTLVTVSS
VL: QSALTQPPSASGSPGQTVTISCDGPSTGVGDYNYVHWYQQHPGKAPKLMIYFTSKKPSGVPDRFSGSKSGNTASLTVSGLQAEDEADYFCQTYAAPLGPMFGGGTKLTVLG
notes: Human IgG1 (G1m), human lambda
B2: the “Binding to Human CTLA4 (binding amount per unit amount of antibody)” value was 0.022 in [1], 0.189 in test [2], 0.138 in test [3] and 0.193 in test [4].

B3: 04H1389-G1m/04L1305-k0MT (antibody, human IgG1, kappa)
heavy: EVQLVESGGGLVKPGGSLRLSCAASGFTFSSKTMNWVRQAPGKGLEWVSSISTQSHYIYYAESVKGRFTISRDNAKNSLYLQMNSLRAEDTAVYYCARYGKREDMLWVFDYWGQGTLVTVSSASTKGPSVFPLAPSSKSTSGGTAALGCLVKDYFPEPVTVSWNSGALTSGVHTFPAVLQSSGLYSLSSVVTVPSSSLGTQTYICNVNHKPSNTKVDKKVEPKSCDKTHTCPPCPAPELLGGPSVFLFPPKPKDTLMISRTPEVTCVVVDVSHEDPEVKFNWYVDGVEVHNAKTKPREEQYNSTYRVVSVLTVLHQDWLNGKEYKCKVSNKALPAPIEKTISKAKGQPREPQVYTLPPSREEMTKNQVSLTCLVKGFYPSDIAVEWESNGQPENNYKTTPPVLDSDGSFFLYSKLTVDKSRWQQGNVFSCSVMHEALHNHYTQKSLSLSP
light: DIVMTQSPLSLPVTPGEPASISCDGPSTGVGDYNYVHWYQQKPGQAPRLLIYFTSKKPSGVPDRFSGSGSGTDFTLKISRVEAEDVGVYYCQTYAAPLGPMFGQGTKLEIKRTVAAPSVFIFPPSDEQLKSGTASVVCLLNNFYPREAKVQWKVDNALQSGNSQESVTEQDSKDSTYSLSSTLTLSKADYEKHKVYACEVTHQGLSSPVTKSFNRGEC
notes: Human IgG1 (G1m), human kappa
Regarding B3, the “Binding to Human CTLA4 (binding amount per unit amount of antibody)” value is 0.03 in test [1], 0.154 in test [2], 0.12 in test [3] and 0.151 in test [4].

B4: H240-G1d/L73-k_glycomab (antibody)
chain 1: not shown
chain 2: DIQMTQSPSSLSASVGDRVTITCRASQDIHKYIAWYQQKPGQAPRLLIQYTSTLQPGVPSRFSGSGSGTDYTFTISSLQPEDIATYYCLQYEQLRTFGGGTKVEIK
modifications: fucose-deficient (afucosylated) Fc sugar chain
On to B4, for which the dissociation constant Kd (usually the constant that tells how readily two partners part at equilibrium) in test [5] was 5.65 µM; in test [8] it was 0.999 µM. The “Relative value to KD between G1d and hFcgRs” value was 1.1 in test [6] and 1.8 in [7].
